This note sets out measurements from patent publication US20190194683A1 (WISCONSIN ALUMNI RESEARCH FOUNDATION, published 2019).

Experiment [1] addresses T1, α-SNAPRhg1LC1-279 (α-SNAPRhg1LC lacking the final 10 C-terminal residues) (Glycine max (soybean)).
T1 construct: both say that the final 10 C-terminal residues are missing; also called α-SNAPRhg1LC1-280
T1 chain: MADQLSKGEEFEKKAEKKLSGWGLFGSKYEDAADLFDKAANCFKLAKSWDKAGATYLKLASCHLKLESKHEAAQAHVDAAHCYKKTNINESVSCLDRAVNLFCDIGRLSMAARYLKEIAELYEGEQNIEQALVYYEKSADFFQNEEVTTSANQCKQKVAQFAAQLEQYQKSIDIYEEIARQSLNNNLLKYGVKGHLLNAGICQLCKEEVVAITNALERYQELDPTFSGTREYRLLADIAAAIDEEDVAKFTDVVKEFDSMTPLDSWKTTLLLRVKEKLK
Description: in vitro binding.

Experiment [2] deals with T2, α-SNAPRhg1WT1-279 (WT α-SNAP lacking the final 10 C-terminal residues) (Glycine max (soybean)).
T2 construct: also called α-SNAP lacking the C-terminus
T2 chain: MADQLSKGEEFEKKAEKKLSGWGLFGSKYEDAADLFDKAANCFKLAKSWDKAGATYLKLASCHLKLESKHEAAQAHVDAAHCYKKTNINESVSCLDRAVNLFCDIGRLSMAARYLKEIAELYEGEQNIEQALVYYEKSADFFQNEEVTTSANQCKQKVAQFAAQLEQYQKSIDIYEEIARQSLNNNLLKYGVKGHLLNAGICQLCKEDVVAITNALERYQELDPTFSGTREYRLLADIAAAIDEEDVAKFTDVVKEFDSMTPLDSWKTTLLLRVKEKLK
Description: in vitro binding of recombinant NSF to tube-adsorbed α-SNAP, silver-stained SDS-PAGE. Here is the method: To verify that NSFRAN07/α-SNAP binding is dependent upon NSF-binding patches at the α-SNAP C-terminus, NSFRAN07 binding to an otherwise WT α-SNAP lacking the final 10 C-terminal residues (α-SNAPRhg1WT₁₋₂₇₉) was determined. Binding of NSFCh07WT or NSFRAN07 binding with α-SNAP Rhg1WT₁₋₂₇₉ was disrupted, similar to the no α-SNAP binding controls (FIG. 10C).
(§1) In vitro NSF binding assays were performed essentially as described in Barnard et. al. (1997) J Cell Biol 139(4): 875-883; and Bayless et al. (2016), Proc Natl Acad Sci USA 113(47): E7375-E7382; Briefly, 20 μg of each respective recombinant α-SNAP protein was added to the bottom of a 1.5-mL polypropylene tube and incubated at 25° C. for 20 min. Unbound α-SNAP proteins were then washed by adding α-SNAP wash buffer [25 mM Tris, pH 7.4, 50 mM KCl, 1 mM DTT, 0.4 mg/mL bovine serum albumin (BSA)]. After removal of wash buffer, 20 μg of recombinant NSF (1 μg/μL in NSF binding buffer), was then immediately added and incubated on ice for 10 min. The solution was then removed, and samples were immediately washed 2× with NBB to remove any unbound NSF. Samples were then boiled in 1×SDS loading buffer and separated on a 10% Bis-Tris SDS-PAGE, and silver-stained using the ProteoSilver Kit (Sigma-Aldrich), according to the manufacturer directions. The percentage of NSF bound by α-SNAP was then calculated using densitometric analysis with ImageJ.

Experiment [3] addresses T3, α-SNAPRhg1WT (wild-type α-SNAP encoded by Glyma.18G022500, Williams 82) (Glycine max (soybean)).
T3 construct: also called WT α-SNAP; wild-type (WT) Rhg1 α-SNAP
T3 chain: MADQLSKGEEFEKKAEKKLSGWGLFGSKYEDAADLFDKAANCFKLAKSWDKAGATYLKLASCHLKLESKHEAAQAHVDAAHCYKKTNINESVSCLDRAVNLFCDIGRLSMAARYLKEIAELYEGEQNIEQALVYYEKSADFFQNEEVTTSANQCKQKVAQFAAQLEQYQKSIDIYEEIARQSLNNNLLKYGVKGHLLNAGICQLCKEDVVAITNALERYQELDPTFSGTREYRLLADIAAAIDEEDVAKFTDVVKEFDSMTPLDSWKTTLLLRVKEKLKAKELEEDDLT
Description: in vitro binding: α-SNAP adsorbed to tube, recombinant NSF added, bound NSF on silver-stained SDS-PAGE, ImageJ densitometry.
From the text: (§2) All Rhg1-containing HG type test and NAM lines contained NSFRAN07, and α-SNAPRhg1HC and α-SNAPRhg1LC are polymorphic at C-terminal residues that bind and stimulate NSF. Therefore, the impact of NSFRAN07 polymorphisms on binding to both Rhg1 resistance-type α-SNAPs and α-SNAPRhg1WT was investigated. Recombinant NSFRAN07, NSFCh07 and Rhg1 α-SNAP proteins were produced for in vitro binding studies as previously described in (Barnard et al., 1997, J Cell Biol 139, 875-883; (Bayless et al. 2016, Proc. Natl. Acad. Sci. USA 113, E7375-E7382). NSFRAN07 and NSFCh07 binding was quantified using ImageJ densitometry across three independent experiments (FIG. 3D). NSFCh07 binding to α-SNAPRhg1HC and α-SNAPRhg1LC was reduced compared to α-SNAPRhg1WT (FIG. 3C). In contrast, NSFRAN07 binding to α-SNAPRhg1HC or α-SNAPRhg1LC was similar to α-SNAPRhg1WT binding, and was increased ˜30% relative to NSFCh07.
as §1

The target of experiment [4] is T4, α-SNAPRhg1HC (high copy Rhg1 resistance-type α-SNAP, Glyma.18G022500 Fayette) (Glycine max (soybean)).
T4 construct: Recombinant protein, His-SUMO tag cleaved off; also called high copy (HC) Rhg1 α-SNAP
T4 chain: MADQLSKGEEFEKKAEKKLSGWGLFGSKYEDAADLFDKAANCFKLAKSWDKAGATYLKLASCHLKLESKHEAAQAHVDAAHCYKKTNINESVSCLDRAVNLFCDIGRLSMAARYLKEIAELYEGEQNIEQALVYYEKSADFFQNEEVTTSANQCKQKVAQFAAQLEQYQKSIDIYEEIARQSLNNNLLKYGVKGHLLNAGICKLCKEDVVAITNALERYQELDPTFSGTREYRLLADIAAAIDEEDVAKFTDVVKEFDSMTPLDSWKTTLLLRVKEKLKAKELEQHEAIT
Description: in vitro binding, densitometry of silver-stained SDS-PAGE across three independent experiments; reference NSFCh07 on the same α-SNAP.
From the text: as §2
(§3) In vitro NSF binding assays were performed essentially as described in Barnard et. al. (1997) J Cell Biol 139(4): 875-883; and Bayless et al. (2016), Proc Natl Acad Sci USA 113(47): E7375-E7382; Briefly, 20 μg of each respective recombinant α-SNAP protein was added to the bottom of a 1.5-mL polypropylene tube and incubated at 25° C. for 20 min. […] The percentage of NSF bound by α-SNAP was then calculated using densitometric analysis with ImageJ.

Experiment [5] addresses T5, α-SNAPRhg1LC (low copy Rhg1 resistance-type α-SNAP, Glyma.18G022500 Peking) (Glycine max (soybean)).
T5 construct: Recombinant protein, His-SUMO tag cleaved off; also called low-copy (LC) Rhg1 α-SNAP
T5 chain: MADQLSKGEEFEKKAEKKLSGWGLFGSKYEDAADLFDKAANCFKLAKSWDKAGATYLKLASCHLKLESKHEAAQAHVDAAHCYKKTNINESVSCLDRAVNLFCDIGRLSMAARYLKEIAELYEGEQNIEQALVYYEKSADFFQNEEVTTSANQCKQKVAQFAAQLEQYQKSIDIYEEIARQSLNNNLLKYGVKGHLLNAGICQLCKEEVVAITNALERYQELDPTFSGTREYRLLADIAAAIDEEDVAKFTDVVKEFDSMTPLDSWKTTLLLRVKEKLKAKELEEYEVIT
The experiment is described as above.
From the text: as §2, §3

The target in experiment [6] is T4, α-SNAPRhg1HC (high copy Rhg1 …). Description: in vitro binding: α-SNAP adsorbed to tube, recombinant NSF added, bound NSF on silver-stained SDS-PAGE, ImageJ densitometry.
From the text: as §2, §1

Experiment [7] concerns the target T5, α-SNAPRhg1LC (low copy Rhg1 …). Described as above.
From the text: as §2, §1

B1: NSFRAN07 (Rhg1-associated NSF from chromosome 07, allele of Glyma.07G195900) (enzyme)
chain: MASQFGLSSSSSSASSMRVTYTPANDLALTNLAFCSPSDLRNFAVPGHNNLYLAAVADSFVLSLSAHDTIGSGQIALNAVQRRCAKVSSGDSVQVSRFVPPEDFNLALLTLELEFFVKKGSKSEQIDAVLLAKQLRKRFMNQVMTVGQKVLFEYHGNNYSFTVSNAAVEGQEKSNSLERGIISDDTYIVFETSRDSGIKIVNQREGATSNIFKQKEFNLQSLGIGGLSAEFADIFRRAFASRVFPPHVTSKLGIKHVKGMLLYGPPGTGKTLMARQIGKILNGKEPKIVNGPEVLSKFVGETEKNVRDLFADAEQDQRTRGDESDLHVIIFDEIDAICKSRGSTRDGTGVHDSIVNQLLTKIDGVESLNNVLLIGMTNRKDMLDEALLRPGRLEVQVEISLPDENGRLQILQIHTNKMKENSFLAADVNLQELAARTKNYSGAELEGVVKSAVSYALNRQLSLEDLTKPVEEENIKVTMDDFLNALHEVTSAFGASTDDLERCRLHGMVECGDRHKHIYQRAMLLVEQVKVSKGSPLVTCLLEGSRGSGKTALSATVGIDSDFPYVKIVSAESMIGLHESTKCAQIIKVFEDAYKSPLSVIILDDIERLLEYVPIGPRFSNLISQTLLVLLKRLPPKGKKLMVIGTTSELDFLESIGFCDTFSVTYHIPTLNTTDAKKVLEQLNVFTDEDIDSAAEALNDMPIRKLYMLIEMAAQGEHGGSAEAIFSGKEKISIAHFYDCLQDVVRL
notes: Recombinant protein from E. coli, ORF cloned from Forrest (Rhg1LC) cDNA; Differs from NSFCh07 by R4Q, N21Y, S25N, insertion 116F and M181I; also called Glyma.07G195900 RAN07
With B1, the binding result is reported as “no binding” in experiment [1], “no binding (tested: 20 µg NSF (1 µg/µL))” in experiment [2] and “binds” in experiment [3]. The “increase of binding relative to NSFCh07” value in experiment [4] and in experiment [5] was about 30% in each case.

B2: NSFCh07 (wild-type NSF encoded by Glyma.07G195900, soybean reference genome Williams 82) (enzyme)
chain: MASRFGLSSSSSSASSMRVTNTPASDLALTNLAFCSPSDLRNFAVPGHNNLYLAAVADSFVLSLSAHDTIGSGQIALNAVQRRCAKVSSGDSVQVSRFVPPEDFNLALLTLELEFVKKGSKSEQIDAVLLAKQLRKRFMNQVMTVGQKVLFEYHGNNYSFTVSNAAVEGQEKSNSLERGMISDDTYIVFETSRDSGIKIVNQREGATSNIFKQKEFNLQSLGIGGLSAEFADIFRRAFASRVFPPHVTSKLGIKHVKGMLLYGPPGTGKTLMARQIGKILNGKEPKIVNGPEVLSKFVGETEKNVRDLFADAEQDQRTRGDESDLHVIIFDEIDAICKSRGSTRDGTGVHDSIVNQLLTKIDGVESLNNVLLIGMTNRKDMLDEALLRPGRLEVQVEISLPDENGRLQILQIHTNKMKENSFLAADVNLQELAARTKNYSGAELEGVVKSAVSYALNRQLSLEDLTKPVEEENIKVTMDDFLNALHEVTSAFGASTDDLERCRLHGMVECGDRHKHIYQRAMLLVEQVKVSKGSPLVTCLLEGSRGSGKTALSATVGIDSDFPYVKIVSAESMIGLHESTKCAQIIKVFEDAYKSPLSVIILDDIERLLEYVPIGPRFSNLISQTLLVLLKRLPPKGKKLMVIGTTSELDFLESIGFCDTFSVTYHIPTLNTTDAKKVLEQLNVFTDEDIDSAAEALNDMPIRKLYMLIEMAAQGEHGGSAEAIFSGKEKISIAHFYDCLQDVVRL
notes: Recombinant protein from E. coli; also called NSFCh07WT; NSF-WT
As to B2, the binding result in experiment [1] is listed as “no binding”; in experiment [2], “no binding (tested: 20 µg NSF (1 µg/µL))”; in experiment [3] it was “binds”; in experiment [6] it was “binds”; in experiment [7] it was “binds”.
